Test results reported in the DeepSol protein solubility set.

experiment: soluble on expression in E. coli; label from the status in PepcDB or PDB records

Sequence	soluble on expression in E. coli
MDYVDYSNPDNPVITDEGERLAKIHSEADLLVAQCLKRGIWDNLDPAELAGVVSMCTFENRRETGGEAQAVTEAMADSMNSVERIWGELVEDERRHRLPITRQPEAGFATAIHQWASGAPLGYCMAAAAENGAELTPGDFVRWCRQVIDLLEQVAKTAYFDETTRNARQAIDAIRRGVVAIGSLEHHHHHH	soluble
MRNQFDLELHELEQSFLGLGQLVLETASKALLALASKDKEMAELIINKDHAINQGQSAIELTCARLLALQQPQVSDLRFVISIMSSCSDLERMGDHMAGIAKAVLQLKENQLAPDEEQLHQMGKLSLSMLADLLVAFPLHQASKAISIAQKDEQIDQYYYALSKEIIGLMKDQETSIPNGTQYLYIIGHLERFADYIANICERLVYLETGELVDLN	soluble
MIKYARQIYSTKQEVIMATYFSDNLTADQQNQVQQIIQQFQHPTLQKDLIVLNTLKKVEKGGDTLRIELQLPFAWNSGAEQLKQAVSDALLKATDCKLIKWAVAYQIATLKRANNQPAVKGVKNIIAVSSGKGGVGKSSVSVNLALALQAQGARVGILDADIYGPSIPHMLGAADQRPTSPDNQHITPIKAHGLSANSIGFLMNEDSATIWRGPMASSALSQLLNETLWDSLDYLVIDMPPGTGDIQLTLSQQIPVTGAVVVTTPQDIALLDAVKGISMFERVSVPVLGIVENMSMHICSECGHHEAIFGTGGAEKMAEKYNVKVLAQLPLHIRIREDLDAGNPTVVRVPENEISQAFLQLAEKVSTELYWQGSVIPSEILFKEVKLEHHHHHH	soluble
MSLAQEIALTPQPAHLTVKDGRFEFGNQLKAKVTPYQGDSIRMVFESFKKELQEATGIKVSSTQKEAKARIILDLNPQLPAEAYKLNVSKKQVRIEASRPAGFYYALQTLKQLMPRNVMAGVATSDHSQWSLPSVEIEDAPRFEWRGFMLDEGRHFFGKDEIKRVIDMMAIYKMNRFHWHLTEDQGWRIEIKKYPKLTETGAWRNSKVLAYGDVKPDGERYGGFYTQKDIKEIVAYAKKKFIEIIPEIDIPGHSQAAVAAYPEFLACDPRDKHEVWLQQGISTDVINVANPKAMQFAKEVIDELTELFPFNYIHLGGDECPTRKWQKNDECKKLLSEIGSSNFRDLQIYFYKQLKDYIATKPADQQRQLIFWNEVLHGNTSILGNDITIMAWIGANAAAKQAAKQGMNTILSPQIPYYINRKQSKLPTEPMSQGHGTETVEAVYNYQPLKDVDAALQPYYKGVQANFWTEWVTEPSVLEYLMLPRLAAVAEAGWTPQEKRNYEDFKERIRKDAELYDLKGWNYGKHIMKEGHHHHHH	soluble
MPCDPIGQFAVLECLDYRWYESLDVRLYGSFGLLQLFPELEKAVMRAFARAIPQGDDTPRVIGYYYTIGAESPIAVRKTPGATPHDLGAPNEHVWEKTNYTSYQDCNLWKDLGCDFVLQVYRDFLLTGADDVQFLRDCWDAIVETLDYVKTFDLDGDGIPENSGAPDQTFDDWRLQGVSAYCGGLWLAALAAAIAISDILLQNHQDSATKEHLLYQKSTYETWLTKSLPIYQEKLWNGKYYRLDSESGSDVVMADQLCGQFYANLLELPDIVPSDRAISALQTVYDACFLKFYDGQFGAANGVRPDGSPENPKATHPLEVWTGINFGLAAFLVQMGMKDEGFRLTQAVVEQIYNNGLQFRTPEAITAAGTFRASTYLRPMAIWAIYLMIGLEHHHHHH	not soluble
MSGINARPTNSIFSNLCQIFSSLQGCLKTQTPFSDGLFSLKSPYRSIRKHRRIIMEVTISAIINGEFADQYGKRGSQFNENGMLI	not soluble
GTEDTVIKVSVLRGPSVIAFADWLENPPIIDNKKVQVKVVDSPDLAQALLIKQETDIAVLPMINAANLYNKGIKIKLAGCPIWGTLYLVEKTPLKEPALYVFGNGTTPDILTRYYLGRQRLDYPLNYAFNTAGEITQGILAGKVNRAVLGEPFLSIALRKDSSLRITADLNHLTDNDTLGFAQTAVVYTPTMEKYRIAFEDALRASCQKAVRYPKETIHSLEEHGIFAQGALTPKSIERCKIYYLSAIEAKDAVMGFLRLIEQYEPKAVGGRLPDAGFIPEKQ	soluble
MKFGWVNVIGDNWEEKKKIVTTALESSIPVVVAEPEDIEKIKELGNIKVASHSLDADIVLVNKNDNIEFLKEAKNLGKETAIYIPIESKEDEEFASEVARFGFVDNIILEGRDWTIIPLENLIADLFHRDVKIVASVNSVDEAKVAYEILEKGTDGVLLNPKNLEDIKELSKLIEEMNKEKVALDVATVTKVEPIGSGDRVCIDTCSLMKIGEGMLIGSYSRALFLVHSETVENPYVATRPFRVNAGPVHAYILCPGNKTKYLSELKAGDKVLIVDKDGNTREAIVGRVKIERRPLVLIEAEYKGDIIRTILQNAETIRLVNEKGEPISVVDLKPGDKVLIKPEEYARHFGMAIKETIIEKLEHHHHHH	soluble
